The RNAGym collection of RNA variant scans (doi:10.7554/elife.90254)

B1: LINE1-full (parent)
chain: UACGUAGGUGGUUUUCCCCUGAUAGUGCUAAGGGGGCCUGGAAGUUUGGACUGGGCAGAGCUCAACACAGCGUGGCAAAGUGGCUGUGGCUAGACUGCCUCUCUGGAUUCCUCGUCACUCAGCAGGGCAUCUCUGAGAGAAAUGCC

Variants of: B1
Test: self-cleavage, relative activity (ratio to wild type); higher = more cleavage; in vitro, sequencing; the parent is a self-cleaving ribozyme

Variant	self-cleavage
G11U A136U	1.26
U12C G55A	0.64
U9G U96A	0
U9G A124C	0
G11A A79G	0.56
G11A G49U	1.35
U12A U104A	1.19
U9C G27A	1.16
G11C A57G	0.71
U9C U134A	1.19
U9C U134G	0.63
U12C G75A	1.46
G10A C133U	1.31
G10A A43G	0.83
U12A U15C	0.92
U12A U15A	0.95
U12C C90U	0.04
G10A C99A	0.42
U9G C56U	0.24
U9C U20A	0.95
G10A A124U	2.3
U9C G126U	1.68
G11A A142G	1.23
U12A A138G	1.37

Variant	self-cleavage
U9C G36U	2.08
U12C U39C	1.4
U12C U39A	1.32
G10C C146U	1.91
U12C G72U	1.13
U12C A24G	1.13
G11A C63A	0.01
U9G A22G	0.93
U9G A140G	0
U9G U130C	1.79
U9G U130A	0.78
U12A U13C	1.58
G11A U119A	0.93
U12C U96A	0.1
U12C U96C	0.19
U12C C101A	1.72
U12C C101U	1.02
U9C G125A	1.8
U12A A59U	0.56
G10A U52C	0.62
G11A A64U	0.3
U12C U119G	1.5
U12C U119C	1.64
U12C G36A	1.04

Variant	self-cleavage
G11U U20C	0.34
G11U U130C	1
U9C G122A	1.43
U12C G105A	1.54
U12C G126A	1.73
U12C C71U	0.9
G10A A50U	1.32
U9C U104C	1.82
U9G A141U	0.52
U9G A141G	1.51
G11A C95A	0.06
U12A A121G	1.43
G11U U134G	1.07
G10A U81A	2.3
U9G U81C	0.83
U12C C19A	0.85
G10A A22G	1.09
G10A A22U	1.55
G10A A22C	1.54
G10C U13C	0.94
U12A A94G	0.55
U12C A121U	1.11
U12C A121G	1.74
U12A U81A	1.89

Variant	self-cleavage
G10C	0.79
G10U	1.26
G10A	1.11
G11C U20C	1.53
U12C A140U	1.24
U12C A140G	1.2
U12C C28U	0.74
U9G G93C	0.11
U12C C146G	1.03
G11C G48U	1.25
U12C A69C	0.09
G10U U104C	2.42
G11A A59G	0.08
U12C G58A	0.09
U12C G33C	1.28
U12C G33U	1.36
U9C U143C	1.31
U9G U73C	1.24
U12A A142G	1.31
U12A A30G	0.94
U9G U134C	0.71
U9C U29A	1.1
U12A U45C	0.82
G10A U62C	0.06

Variant	self-cleavage
U9G U132A	0.59
G10A U104C	0.37
U12C C145G	1.06
U9G G60A	0.09
U12A U100A	0.87
U12A C98U	0.41
G11A G60A	0.01
G10A U73G	1.14
U12C G35A	1.62
U12C U81A	1
U12C U81C	1.11
U12C U73A	1.75
U12C U73C	1.65
U12C U23C	1.34
G10A A67U	0.07
U12A A141G	1.19
U12C U112C	1.26
G11A C51U	1.38
U12A U109A	0.65
U9G A67G	0.37
U9G U52G	1.05
G11A U62G	0.03
U9C U87C	0.42
U9C U87G	0.69

Variant	self-cleavage
U9C U87A	0.2
U12A U26C	1.22
U12C A117U	1.28
U12C G88A	0.1
G10A C95A	0.03
U12C G40U	1.2
U12C U46C	1.62
U12C C18U	1.28
U12C C18G	2.1
G10A C90U	0.06
U12A A50G	1.45
U12A A50C	0.57
U12C U130A	1.49
U9C G35C	1.43
G11A U13C	0.51
U12C A65G	0.15
U12A U134A	0.6
U12A U134C	0.73
U12C C84U	0.15
U12C A129G	1.4
U12C A142U	0.91
U12C A142C	1.38
U9G A31C	1.72
U12C A57U	0.22

Variant	self-cleavage
U12C U108C	1.66
U12C U108A	1.25
G11A A141U	1.05
U9C U96C	0.14
U9C U96A	0.15
U9C U46A	1.18
U9C U46C	1.08
G10U U91C	0.44
U9C C128U	1.52
U12C C68U	0.35
U9G U47A	0.99
U9C U14A	1.17
U9C U14G	2.09
U12C G82A	1.68
U12A U47A	0.67
U12A U47C	1.17
U12C U29C	1.44
U12C U29A	1.16
G11A U52G	1.56
U12C A22G	1.64
U12A A65C	0.14
U12A A65G	0.21
U12C U85C	0.12
